Assay results reported in PMC3124363 (Nature chemical biology, 2011).
Blank lines part the entries; values can stand above or below the binder they belong to.

Biological target: GST-Cdk1/GST-cyclin B1 complex (UniProt P06493 1-297; P14635 1-433)
Assay: cell-based or functional assay

Sequence of GST-Cdk1/GST-cyclin B1 complex (P06493 whole entry, chain 1 of 2): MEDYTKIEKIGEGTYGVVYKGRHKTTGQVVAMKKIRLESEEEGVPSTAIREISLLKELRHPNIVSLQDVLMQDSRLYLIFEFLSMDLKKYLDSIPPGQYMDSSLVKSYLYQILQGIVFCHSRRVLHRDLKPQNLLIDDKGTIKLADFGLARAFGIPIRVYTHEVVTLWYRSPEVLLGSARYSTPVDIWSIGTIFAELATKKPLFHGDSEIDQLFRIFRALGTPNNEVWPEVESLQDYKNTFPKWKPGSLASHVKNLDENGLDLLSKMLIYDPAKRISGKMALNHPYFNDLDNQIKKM
Sequence of GST-Cdk1/GST-cyclin B1 complex (P14635 whole entry, chain 2 of 2): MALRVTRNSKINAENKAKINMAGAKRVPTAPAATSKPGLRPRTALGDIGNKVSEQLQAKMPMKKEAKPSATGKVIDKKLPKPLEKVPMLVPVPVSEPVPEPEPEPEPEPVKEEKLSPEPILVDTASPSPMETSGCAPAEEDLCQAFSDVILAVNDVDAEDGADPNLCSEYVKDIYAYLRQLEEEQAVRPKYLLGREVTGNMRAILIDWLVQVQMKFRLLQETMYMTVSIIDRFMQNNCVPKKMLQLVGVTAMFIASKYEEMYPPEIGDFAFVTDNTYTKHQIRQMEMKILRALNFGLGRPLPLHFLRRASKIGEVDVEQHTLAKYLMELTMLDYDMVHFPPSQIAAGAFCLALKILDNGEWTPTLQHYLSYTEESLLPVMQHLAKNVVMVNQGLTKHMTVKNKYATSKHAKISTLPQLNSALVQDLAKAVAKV

IC50 of inhibition of Cdk1/cyclin B1 kinase activity in vitro (substrate Rb^C): 218 nM
B1: p21-KID-LH−3 (p21-KID with sub-domain LH shortened by three residues) (domain or fragment, human, UniProt P38936 9-84, looked up)
chain: RQNPCGSKACRRLFGPVDSEQLSRDCDALMAGCIQEAWNFDFVTETPLEGDFAWERVRGLGLPKLYLPTGPRR

IC50 of inhibition of Cdk1/cyclin B1 kinase activity in vitro (substrate Rb^C): 71 nM
B2: p21-KID-LH+3 (p21-KID with sub-domain LH lengthened by three residues) (domain or fragment, human, UniProt P38936 9-84, looked up)
chain: RQNPCGSKACRRLFGPVDSEQLSRDCDALMAGCIQEARERALRWNFDFVTETPLEGDFAWERVRGLGLPKLYLPTGPRR
